Results reported in patent US20240294617A1 (Ablynx, published 2024).
Substitutions are numbered along the chain they refer to.

What was measured:
[1] = target: T1, human serum albumin (Sigma-Aldrich A3782) (human, UniProt P02768 25-609); assay: SPR (ProteOn), HSA immobilised, 500 nM injected, dissociation at pH 5.0
T1 construct: Bought protein; also called HSA; human SA

[2] = target: T2, mouse serum albumin (Albumin Bioscience 2601) (mouse, UniProt P07724 25-608); assay: SPR (ProteOn XPR36), SA immobilised, pH 7.4
T2 construct: Bought protein; also called mouse SA

[3] = target: T1, human serum albumin (Sigma-Aldrich …); assay: SPR (ProteOn XPR36), SA immobilised, pH 7.4
[4] = target: T3, pig serum albumin (Sigma-Aldrich A4414) (pig, UniProt P08835 25-607); assay: SPR (ProteOn XPR36), SA immobilised, pH 7.4
T3 construct: Bought protein; also called pig SA

[5] = target: T4, rat serum albumin (Sigma-Aldrich A4538) (rat, UniProt P02770 25-608); assay: SPR (ProteOn XPR36), SA immobilised, pH 7.4
T4 construct: Bought protein; also called rat SA

[6] = target: T5, guinea pig serum albumin (Gentaur GPSA62) (guinea pig); assay: SPR (ProteOn XPR36), SA immobilised, pH 7.4
T5 construct: also called guinea pig SA

[7] = target: T6, cynomolgus monkey serum albumin (generated in-house) (cynomolgus monkey, UniProt A2V9Z4 25-608, limits assumed); assay: SPR (ProteOn XPR36), SA immobilised, pH 7.4
T6 construct: also called cyno SA

[8] = target: T7, dog serum albumin (Abcam 119814) (dog, UniProt P49822 25-608); assay: SPR (ProteOn XPR36), SA immobilised, pH 7.4
T7 construct: Bought protein; also called dog SA

[9] = target: T1, human serum albumin (Sigma-Aldrich …); assay: SPR (ProteOn), HSA immobilised, 500 nM injected, dissociation at pH 6.0
[10] = target: T1, human serum albumin (Sigma-Aldrich …); assay: SPR (ProteOn), HSA immobilised, 500 nM injected, dissociation at pH 7.4
[11] = target: T1, human serum albumin (Sigma-Aldrich …); assay: competition ELISA on coated HSA

B1: serum albumin binder of SEQ ID NO:19 (invention) (VHH)
VHH: EVQLVESGGGVVQPGGSLRLSCAASGSTISSYVMGWFRRAPGKEREFVAAISRSGGYTYYADSVKGRFTISRDNSKKTAYLQMNSLRPEDTALYYCAAGRYSAWYSQSYEYDYWGQGTLVTVSS
notes: Monovalent Nanobody; also called T023500043
[1]
  koff: 7.5e-05 s⁻¹
[2]
  Kd: 0.016 nM
  koff: 1.5e-05 s⁻¹
  kon: 940000 M⁻¹ s⁻¹
[3]
  Kd: 0.046 nM
  koff: 3.7e-05 s⁻¹
  kon: 790000 M⁻¹ s⁻¹
[4]
  Kd: 290 nM
  koff: 0.036 s⁻¹
  kon: 120000 M⁻¹ s⁻¹
[5]
  Kd: 0.012 nM
  koff: 1.5e-05 s⁻¹
  kon: 1.2e+06 M⁻¹ s⁻¹
[6]
  Kd: 0.059 nM
  koff: 5.6e-05 s⁻¹
  kon: 940000 M⁻¹ s⁻¹
[7]
  Kd: 0.016 nM
  koff: 1.4e-05 s⁻¹
  kon: 830000 M⁻¹ s⁻¹
[8]
  Kd: 2.8 nM
  koff: 0.0025 s⁻¹
  kon: 900000 M⁻¹ s⁻¹
[9]
  koff: 6.7e-05 s⁻¹
[10]
  koff: 6e-05 s⁻¹

B2: His6Flag3-SEQ ID NO:20 (VHH, not shown: small tags and cut ends)
VHH: B1 VHH with T28N
[11]
  binding result: binds
